Numbered stars: 1 amine (or outer) side, 2 acyl side, 3 side chain; on linkers, the order of the positions; unused ones are H or OH. Bridge positions count the residues as written; N and C are the ends. Square brackets hold non-standard residues; d marks the D form. Ends that are not written are not given here. acetyl = acetyl (haloacetyl before ring closure) on the side-chain amine, O=C(C[*:1])[*:2]; COCH2 = acetyl group that carries the bridge; hCys = N[C@@H](CCS)C(=O)O
Columns and labels:
[1] = Molecular stability after reducing agent (DTT) treatment, LC; format: physicochemical; conditions: residual rate after DTT aqueous solution, room temperature, 1 hour
Procedure: The molecular stability of the cyclic peptide was evaluated by analyzing an aqueous solution of the cyclic peptide treated with a reducing agent by liquid chromatography (LC).
The reducing agent treatment was performed under the following conditions based on the concentration of glutathione contained in the cells. 25 μL of a 0.2 mg/mL cyclic peptide aqueous solution was prepared, 58.8 μL of a 12.6 mmol/L DTT aqueous solution was added to the aqueous solution, and the mixture was incubated at room temperature for 1 hour to obtain an aqueous solution of the cyclic peptide treated with a reducing agent. The DTT aqueous solution was used by diluting a 1 mol/L (+−)-dithiothreitol (DTT) solution (FUJIFILM Wako Pure Chemical Corporation, 044-33871) with water. The total area of all the peaks in LC/MS of the cyclic peptide before the reducing agent treatment was set to 100%, and the proportion of the total area of all the peaks in LC/MS of the aqueous solution of the cyclic peptide treated with the reducing agent was determined to calculate the residual rate of the cyclic peptide, and the molecular stability was evaluated according to the following evaluation criteria. The evaluation result preferably satisfies the evaluation criteria A, B, or C.
The LC used for the evaluation of molecular stability was set to the following conditions. • LC device: Prominence series (pump, column oven, autosampler, detector) (manufactured by Shimadzu Corporation) • Detector: photodiode array detector (SPD-M20A), measurement wavelength of 280 nm • Column: TSKgel ODS-100V, inner diameter of 4.6 mm×length of 150 mm, particle diameter of 5 μm (manufactured by Tosoh Corporation) • Eluent A: solution containing 0.1% trifluoroacetic acid as solute, and solvent is 100% water • Eluent B: solution containing 0.1% trifluoroacetic acid as solute, and solvent is 100% acetonitrile • Flow rate: 1.0 mL/min • Injection amount: 25 μL • Gradient: 20% to 50%: Eluent B (0 to 15 minutes), 100%: Eluent B (15 minutes) • Column temperature: 40° C.

[2] = biological target: T1, Recombinant Human FGFR2 alpha (IIIc) Fc Chimera Protein (Homo sapiens, UniProt P21802); experiment: SPR binding affinity of chemically synthesized cyclic peptide to immobilized FGFR; conditions: SPR binding amount at 10 nmol/L cyclic peptide, 25° C., per one molecule of FGFR; chemically synthesized product
T1 construct: Fc (chimera); purchased R&D systems 712-FR-050
Procedure: The binding affinity of the cyclic peptide to FGFR was evaluated using a surface plasmon resonance (SPR) method.
A CM5 sensor chip (Cytiva, 29149603) was set in Biacore-T200 (manufactured by Cytiva) which is a surface plasmon resonance device, and an HBS-EP buffer (Cytiva, BR100826) was added as a running buffer at a flow rate of 10 μL/min to equilibrate the flow channel. Next, 70 μL of a mixed aqueous solution of 0.2 mol/L 1-(3-dimethylaminopropyl)-3-ethylcarbodiimide (EDC) and 0.05 mol/L N-hydroxysuccinimide (NHS) was added to activate the sensor chip. Then, Recombinant Human FGFR2 alpha (IIIc) Fc Chimera Protein CF (R&D systems, 712-FR-050) prepared at 50 nmol/L in an Acetate 4.5 buffer (Cytiva, BR100350) was added thereto to perform immobilization at about 5000 RU. Thereafter, the blocking treatment was performed with an ethanolamine solution. In addition, in another flow channel of the same sensor chip, blocking treatment was performed immediately after activation without immobilizing FGFR.
A cyclic peptide diluted to 10 nmol/L using HBS-EP was added to each flow channel of the FGFR-immobilized sensor chip produced above at 25° C. for 10 minutes, then HBS-EP was allowed to flow as a running buffer for 30 minutes, and the binding of the cyclic peptide to FGFR was measured. Thereafter, a regeneration treatment of removing the bound cyclic peptide was performed by repeating the flow of a regeneration liquid in which sodium chloride powder was dissolved in Glysine 1.5 (Cytiva, BR100354) to a final concentration of 0.15 mol/L for 1 minute in each flow channel twice. The binding amount of the cyclic peptide was evaluated from the difference between the measured value of Biacore-T200 in the flow channel in which FGFR was immobilized and the measured value of Biacore-T200 in the flow channel in which FGFR was not immobilated, in a case where a 10 nmol/L cyclic peptide was allowed to flow.
The binding amount of the cyclic peptide evaluated above was normalized to the binding amount of the cyclic peptide molecules per one molecule of FGFR using the molecular weights of the cyclic peptide and FGFR, and the binding affinity to FGFR was evaluated according to the following evaluation criteria. The evaluation result preferably satisfies the evaluation criteria A, B, or C.

T1 sequence (P21802 with tags, fused parts or gaps limits assumed): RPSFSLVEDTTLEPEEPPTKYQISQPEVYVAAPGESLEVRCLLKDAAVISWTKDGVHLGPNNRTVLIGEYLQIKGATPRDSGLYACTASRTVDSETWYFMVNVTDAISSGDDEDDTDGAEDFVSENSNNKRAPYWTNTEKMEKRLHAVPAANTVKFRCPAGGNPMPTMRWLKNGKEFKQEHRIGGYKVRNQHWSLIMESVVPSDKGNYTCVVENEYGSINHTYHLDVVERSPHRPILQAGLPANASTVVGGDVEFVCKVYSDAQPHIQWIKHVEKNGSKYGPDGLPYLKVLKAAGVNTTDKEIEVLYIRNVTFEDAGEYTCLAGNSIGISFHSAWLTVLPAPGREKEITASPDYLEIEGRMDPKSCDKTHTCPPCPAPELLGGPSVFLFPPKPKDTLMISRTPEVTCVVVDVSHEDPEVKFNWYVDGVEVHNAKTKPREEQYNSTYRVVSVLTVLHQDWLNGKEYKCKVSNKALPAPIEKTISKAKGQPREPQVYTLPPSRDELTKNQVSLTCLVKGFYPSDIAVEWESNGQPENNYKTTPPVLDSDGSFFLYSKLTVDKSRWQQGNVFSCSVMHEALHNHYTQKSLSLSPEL

Row | Substance | Evaluation result of reductive stability [1] | Evaluation result of binding affinity to FGFR [2]
1 | 446 (YKEENYLDPEQYQYFIYFXYKKK; Description of Artificial Sequence: Cyclic peptide) [compound 446] | A (The residual rate of cyclic peptide is 90% or more.) | A (The binding amount is 0.7 molecules of the cyclic peptide/one molecule of FGFR or more.)
2 | 448 (YXEENYLDPEQYQYFIYFXYKKK; not fully specified; Description of Artificial Sequence: Cyclic peptide) [compound 448] | A (The residual rate of cyclic peptide is 90% or more.) | A (The binding amount is 0.7 molecules of the cyclic peptide/one molecule of FGFR or more.)
3 | 449 (YXEENYLDPEQYQYFIYFXYKKK; not fully specified; Description of Artificial Sequence: Cyclic peptide) [compound 449] | A (The residual rate of cyclic peptide is 90% or more.) | A (The binding amount is 0.7 molecules of the cyclic peptide/one molecule of FGFR or more.)
4 | 439 (QXPQNFINPVQWRYFQHYXNKKK; not fully specified; Description of Artificial Sequence: Cyclic peptide) [compound 439] | A (The residual rate of cyclic peptide is 90% or more.) | A (The binding amount is 0.7 molecules of the cyclic peptide/one molecule of FGFR or more.)
5 | 441 (QXPQNFINPVQWRYFQHYXNKKK; not fully specified; Description of Artificial Sequence: Cyclic peptide) [compound 441] | A (The residual rate of cyclic peptide is 90% or more.) | A (The binding amount is 0.7 molecules of the cyclic peptide/one molecule of FGFR or more.)
6 | 440 (QXPQNFINPVQWRYFQHYXNKKK; not fully specified; Description of Artificial Sequence: Cyclic peptide) [compound 440] | A (The residual rate of cyclic peptide is 90% or more.) | A (The binding amount is 0.7 molecules of the cyclic peptide/one molecule of FGFR or more.)
7 | 442 (YXEENYLDPEQYQYFIYFKYKKK; not fully specified; Description of Artificial Sequence: Cyclic peptide) [compound 442] | A (The residual rate of cyclic peptide is 90% or more.) | A (The binding amount is 0.7 molecules of the cyclic peptide/one molecule of FGFR or more.)
8 | 437 (QK(COCH2)PQNFINPVQWRYFQHY[hCys]NKKK; thioether 2-19 via acetyl) [compound 437] | A (The residual rate of cyclic peptide is 90% or more.) | A (The binding amount is 0.7 molecules of the cyclic peptide/one molecule of FGFR or more.)
9 | 447 (YXEENYLDPEQYQYFIYFXYKKK; not fully specified; Description of Artificial Sequence: Cyclic peptide) [compound 447] | A (The residual rate of cyclic peptide is 90% or more.) | A (The binding amount is 0.7 molecules of the cyclic peptide/one molecule of FGFR or more.)
10 | 444 (YXEENYLDPEQYQYFIYFXYKKK; not fully specified; Description of Artificial Sequence: Cyclic peptide) [compound 444] | A (The residual rate of cyclic peptide is 90% or more.) | B (The binding amount is 0.5 molecules of the cyclic peptide/one molecule of FGFR or more and less than 0.7 molecules of cyclic peptide/one molecule of FGFR.)
11 | 435 (QXPQNFINPVQWRYFQHYXNKKK; not fully specified; Description of Artificial Sequence: Cyclic peptide) [compound 435] | A (The residual rate of cyclic peptide is 90% or more.) | A (The binding amount is 0.7 molecules of the cyclic peptide/one molecule of FGFR or more.)
12 | 438 (QK(COCH2)PQNFINPVQWRYFQHY[hCys]NKKK; thioether 2-19 via acetyl) [compound 438] | A (The residual rate of cyclic peptide is 90% or more.) | A (The binding amount is 0.7 molecules of the cyclic peptide/one molecule of FGFR or more.)
13 | 434 (QXPQNFINPVQWRYFQHYXNKKK; not fully specified; Description of Artificial Sequence: Cyclic peptide) [compound 434] | A (The residual rate of cyclic peptide is 90% or more.) | A (The binding amount is 0.7 molecules of the cyclic peptide/one molecule of FGFR or more.)
14 | 453 (YXHENYLDPEQYQYFHYFKKKK; Description of Artificial Sequence: Cyclic peptide) [compound 453] | A (The residual rate of cyclic peptide is 90% or more.) | C (The binding amount is 0.1 molecules of cyclic peptide/one molecule of FGFR or more and less than 0.5 molecules of cyclic peptide/one molecule of FGFR.)
15 | 451 (YCEENYLDPEQYQYFIYFCYKKK; disulfide 2-19) [compound 451] | D (The residual rate of the cyclic peptide is less than 50%) | D (The binding amount is less than 0.1 molecules of the cyclic peptide/one molecule of FGFR.)
16 | 452 (YXHENYLDPEQYQYFHYFKYKKK; Description of Artificial Sequence: Cyclic peptide) [compound 452] | A (The residual rate of cyclic peptide is 90% or more.) | A (The binding amount is 0.7 molecules of the cyclic peptide/one molecule of FGFR or more.)
17 | 433 (Q[hCys]PQNFINPVQWRYFQHYK(COCH2)NKKK; thioether 2-19 via acetyl) [compound 433] | A (The residual rate of cyclic peptide is 90% or more.) | A (The binding amount is 0.7 molecules of the cyclic peptide/one molecule of FGFR or more.)
18 | 443 (YXEENYLDPEQYQYFIYFXYKKK; not fully specified; Description of Artificial Sequence: Cyclic peptide) [compound 443] | A (The residual rate of cyclic peptide is 90% or more.) | A (The binding amount is 0.7 molecules of the cyclic peptide/one molecule of FGFR or more.)
19 | 454 (XHENYLDPEQYQYFHYFKYKKK; Description of Artificial Sequence: Cyclic peptide) [compound 454] | B (The residual rate of the cyclic peptide is 70% or more and less than 90%) | C (The binding amount is 0.1 molecules of cyclic peptide/one molecule of FGFR or more and less than 0.5 molecules of cyclic peptide/one molecule of FGFR.)

Source: patent US20260008815A1, “CYCLIC PEPTIDE OR SALT THEREOF, AND USES THEREOF” (FUJIFILM Corporation, priority 2023, published 2026)
